In patent publication US20260201008A1, “SECRETIN-DERIVED GLP1R SELECTIVE AGONISTS” (GUBRA A/S, priority 2023, published 2026):
Numbered stars: 1 amine (or outer) side, 2 acyl side, 3 side chain; on linkers, the order of the positions; unused ones are H or OH. Square brackets hold non-standard residues; d marks the D form. Side chains are listed from the residue outwards. Ends that are not written are not given here. * marks the point of attachment. C20 diacid = O=C(O)CCCCCCCCCCCCCCCCCCC(=O)*; γGlu = O=C(O)[C@H](CCC(=O)[*:2])N[*:1]; AEEA = NCCOCCOCC(=O)O; Aib = CC(C)(N)C(=O)O

B1: SEQ ID NO: 190 (peptide)
peptide: H[Aib]EGTFTSDWSFLLEGAALQRFIQWLV-NH2
modifications: N-terminus assumed
SMILES: CC[C@H](C)[C@H](NC(=O)[C@H](Cc1ccccc1)NC(=O)[C@H](CCCNC(=N)N)NC(=O)[C@H](CCC(N)=O)NC(=O)[C@H](CC(C)C)NC(=O)[C@H](C)NC(=O)[C@H](C)NC(=O)CNC(=O)[C@H](CCC(=O)O)NC(=O)[C@H](CC(C)C)NC(=O)[C@H](CC(C)C)NC(=O)[C@H](Cc1ccccc1)NC(=O)[C@H](CO)NC(=O)[C@H](Cc1c[nH]c2ccccc12)NC(=O)[C@H](CC(=O)O)NC(=O)[C@H](CO)NC(=O)[C@@H](NC(=O)[C@H](Cc1ccccc1)NC(=O)[C@@H](NC(=O)CNC(=O)[C@H](CCC(=O)O)NC(=O)C(C)(C)NC(=O)[C@@H](N)Cc1c[nH]cn1)[C@@H](C)O)[C@@H](C)O)C(=O)N[C@@H](CCC(N)=O)C(=O)N[C@@H](Cc1c[nH]c2ccccc12)C(=O)N[C@@H](CC(C)C)C(=O)N[C@H](C(N)=O)C(C)C
B2: SEQ ID NO: 191 (peptide)
peptide: H[Aib]EGTFTSDWSWLLEGAALQRFIQWLV-NH2
modifications: N-terminus assumed
SMILES: CC[C@H](C)[C@H](NC(=O)[C@H](Cc1ccccc1)NC(=O)[C@H](CCCNC(=N)N)NC(=O)[C@H](CCC(N)=O)NC(=O)[C@H](CC(C)C)NC(=O)[C@H](C)NC(=O)[C@H](C)NC(=O)CNC(=O)[C@H](CCC(=O)O)NC(=O)[C@H](CC(C)C)NC(=O)[C@H](CC(C)C)NC(=O)[C@H](Cc1c[nH]c2ccccc12)NC(=O)[C@H](CO)NC(=O)[C@H](Cc1c[nH]c2ccccc12)NC(=O)[C@H](CC(=O)O)NC(=O)[C@H](CO)NC(=O)[C@@H](NC(=O)[C@H](Cc1ccccc1)NC(=O)[C@@H](NC(=O)CNC(=O)[C@H](CCC(=O)O)NC(=O)C(C)(C)NC(=O)[C@@H](N)Cc1c[nH]cn1)[C@@H](C)O)[C@@H](C)O)C(=O)N[C@@H](CCC(N)=O)C(=O)N[C@@H](Cc1c[nH]c2ccccc12)C(=O)N[C@@H](CC(C)C)C(=O)N[C@H](C(N)=O)C(C)C
B3: SEQ ID NO: 192 (peptide)
peptide: H[Aib]EGTFTSDWS[Aib]LLEGAALQRFIQWLV-NH2
modifications: N-terminus assumed
SMILES: CC[C@H](C)[C@H](NC(=O)[C@H](Cc1ccccc1)NC(=O)[C@H](CCCNC(=N)N)NC(=O)[C@H](CCC(N)=O)NC(=O)[C@H](CC(C)C)NC(=O)[C@H](C)NC(=O)[C@H](C)NC(=O)CNC(=O)[C@H](CCC(=O)O)NC(=O)[C@H](CC(C)C)NC(=O)[C@H](CC(C)C)NC(=O)C(C)(C)NC(=O)[C@H](CO)NC(=O)[C@H](Cc1c[nH]c2ccccc12)NC(=O)[C@H](CC(=O)O)NC(=O)[C@H](CO)NC(=O)[C@@H](NC(=O)[C@H](Cc1ccccc1)NC(=O)[C@@H](NC(=O)CNC(=O)[C@H](CCC(=O)O)NC(=O)C(C)(C)NC(=O)[C@@H](N)Cc1c[nH]cn1)[C@@H](C)O)[C@@H](C)O)C(=O)N[C@@H](CCC(N)=O)C(=O)N[C@@H](Cc1c[nH]c2ccccc12)C(=O)N[C@@H](CC(C)C)C(=O)N[C@H](C(N)=O)C(C)C
B4: SEQ ID NO: 193 (peptide)
peptide: H[Aib]EGTFTSDWSELLEGAALQRFIQWLV-NH2
modifications: N-terminus assumed
SMILES: CC[C@H](C)[C@H](NC(=O)[C@H](Cc1ccccc1)NC(=O)[C@H](CCCNC(=N)N)NC(=O)[C@H](CCC(N)=O)NC(=O)[C@H](CC(C)C)NC(=O)[C@H](C)NC(=O)[C@H](C)NC(=O)CNC(=O)[C@H](CCC(=O)O)NC(=O)[C@H](CC(C)C)NC(=O)[C@H](CC(C)C)NC(=O)[C@H](CCC(=O)O)NC(=O)[C@H](CO)NC(=O)[C@H](Cc1c[nH]c2ccccc12)NC(=O)[C@H](CC(=O)O)NC(=O)[C@H](CO)NC(=O)[C@@H](NC(=O)[C@H](Cc1ccccc1)NC(=O)[C@@H](NC(=O)CNC(=O)[C@H](CCC(=O)O)NC(=O)C(C)(C)NC(=O)[C@@H](N)Cc1c[nH]cn1)[C@@H](C)O)[C@@H](C)O)C(=O)N[C@@H](CCC(N)=O)C(=O)N[C@@H](Cc1c[nH]c2ccccc12)C(=O)N[C@@H](CC(C)C)C(=O)N[C@H](C(N)=O)C(C)C
B5: SEQ ID NO: 195 (peptide)
peptide: H[Aib]EGTFTSDYSGLLEGAALQRFIQWLV-NH2
modifications: N-terminus assumed
SMILES: CC[C@H](C)[C@H](NC(=O)[C@H](Cc1ccccc1)NC(=O)[C@H](CCCNC(=N)N)NC(=O)[C@H](CCC(N)=O)NC(=O)[C@H](CC(C)C)NC(=O)[C@H](C)NC(=O)[C@H](C)NC(=O)CNC(=O)[C@H](CCC(=O)O)NC(=O)[C@H](CC(C)C)NC(=O)[C@H](CC(C)C)NC(=O)CNC(=O)[C@H](CO)NC(=O)[C@H](Cc1ccc(O)cc1)NC(=O)[C@H](CC(=O)O)NC(=O)[C@H](CO)NC(=O)[C@@H](NC(=O)[C@H](Cc1ccccc1)NC(=O)[C@@H](NC(=O)CNC(=O)[C@H](CCC(=O)O)NC(=O)C(C)(C)NC(=O)[C@@H](N)Cc1c[nH]cn1)[C@@H](C)O)[C@@H](C)O)C(=O)N[C@@H](CCC(N)=O)C(=O)N[C@@H](Cc1c[nH]c2ccccc12)C(=O)N[C@@H](CC(C)C)C(=O)N[C@H](C(N)=O)C(C)C
B6: SEQ ID NO: 197 (peptide)
peptide: H[Aib]EGTFTSDYS[Aib]LLEGAALQRFIQWLV-NH2
modifications: N-terminus assumed
SMILES: CC[C@H](C)[C@H](NC(=O)[C@H](Cc1ccccc1)NC(=O)[C@H](CCCNC(=N)N)NC(=O)[C@H](CCC(N)=O)NC(=O)[C@H](CC(C)C)NC(=O)[C@H](C)NC(=O)[C@H](C)NC(=O)CNC(=O)[C@H](CCC(=O)O)NC(=O)[C@H](CC(C)C)NC(=O)[C@H](CC(C)C)NC(=O)C(C)(C)NC(=O)[C@H](CO)NC(=O)[C@H](Cc1ccc(O)cc1)NC(=O)[C@H](CC(=O)O)NC(=O)[C@H](CO)NC(=O)[C@@H](NC(=O)[C@H](Cc1ccccc1)NC(=O)[C@@H](NC(=O)CNC(=O)[C@H](CCC(=O)O)NC(=O)C(C)(C)NC(=O)[C@@H](N)Cc1c[nH]cn1)[C@@H](C)O)[C@@H](C)O)C(=O)N[C@@H](CCC(N)=O)C(=O)N[C@@H](Cc1c[nH]c2ccccc12)C(=O)N[C@@H](CC(C)C)C(=O)N[C@H](C(N)=O)C(C)C
B7: SEQ ID NO: 198 (peptide)
peptide: H[Aib]EGTFTSDYSVLLEGAALQRFIQWLV-NH2
modifications: N-terminus assumed
SMILES: CC[C@H](C)[C@H](NC(=O)[C@H](Cc1ccccc1)NC(=O)[C@H](CCCNC(=N)N)NC(=O)[C@H](CCC(N)=O)NC(=O)[C@H](CC(C)C)NC(=O)[C@H](C)NC(=O)[C@H](C)NC(=O)CNC(=O)[C@H](CCC(=O)O)NC(=O)[C@H](CC(C)C)NC(=O)[C@H](CC(C)C)NC(=O)[C@@H](NC(=O)[C@H](CO)NC(=O)[C@H](Cc1ccc(O)cc1)NC(=O)[C@H](CC(=O)O)NC(=O)[C@H](CO)NC(=O)[C@@H](NC(=O)[C@H](Cc1ccccc1)NC(=O)[C@@H](NC(=O)CNC(=O)[C@H](CCC(=O)O)NC(=O)C(C)(C)NC(=O)[C@@H](N)Cc1c[nH]cn1)[C@@H](C)O)[C@@H](C)O)C(C)C)C(=O)N[C@@H](CCC(N)=O)C(=O)N[C@@H](Cc1c[nH]c2ccccc12)C(=O)N[C@@H](CC(C)C)C(=O)N[C@H](C(N)=O)C(C)C
B8: SEQ ID NO: 199 (peptide)
peptide: H[Aib]EGTFTSDYSELLEGAALQRFIQWLV-NH2
modifications: N-terminus assumed
SMILES: CC[C@H](C)[C@H](NC(=O)[C@H](Cc1ccccc1)NC(=O)[C@H](CCCNC(=N)N)NC(=O)[C@H](CCC(N)=O)NC(=O)[C@H](CC(C)C)NC(=O)[C@H](C)NC(=O)[C@H](C)NC(=O)CNC(=O)[C@H](CCC(=O)O)NC(=O)[C@H](CC(C)C)NC(=O)[C@H](CC(C)C)NC(=O)[C@H](CCC(=O)O)NC(=O)[C@H](CO)NC(=O)[C@H](Cc1ccc(O)cc1)NC(=O)[C@H](CC(=O)O)NC(=O)[C@H](CO)NC(=O)[C@@H](NC(=O)[C@H](Cc1ccccc1)NC(=O)[C@@H](NC(=O)CNC(=O)[C@H](CCC(=O)O)NC(=O)C(C)(C)NC(=O)[C@@H](N)Cc1c[nH]cn1)[C@@H](C)O)[C@@H](C)O)C(=O)N[C@@H](CCC(N)=O)C(=O)N[C@@H](Cc1c[nH]c2ccccc12)C(=O)N[C@@H](CC(C)C)C(=O)N[C@H](C(N)=O)C(C)C
B9: SEQ ID NO: 200 (peptide)
peptide: H[Aib]EGTFTSDYSWLLEGAALQRFIQWLV-NH2
modifications: N-terminus assumed
SMILES: CC[C@H](C)[C@H](NC(=O)[C@H](Cc1ccccc1)NC(=O)[C@H](CCCNC(=N)N)NC(=O)[C@H](CCC(N)=O)NC(=O)[C@H](CC(C)C)NC(=O)[C@H](C)NC(=O)[C@H](C)NC(=O)CNC(=O)[C@H](CCC(=O)O)NC(=O)[C@H](CC(C)C)NC(=O)[C@H](CC(C)C)NC(=O)[C@H](Cc1c[nH]c2ccccc12)NC(=O)[C@H](CO)NC(=O)[C@H](Cc1ccc(O)cc1)NC(=O)[C@H](CC(=O)O)NC(=O)[C@H](CO)NC(=O)[C@@H](NC(=O)[C@H](Cc1ccccc1)NC(=O)[C@@H](NC(=O)CNC(=O)[C@H](CCC(=O)O)NC(=O)C(C)(C)NC(=O)[C@@H](N)Cc1c[nH]cn1)[C@@H](C)O)[C@@H](C)O)C(=O)N[C@@H](CCC(N)=O)C(=O)N[C@@H](Cc1c[nH]c2ccccc12)C(=O)N[C@@H](CC(C)C)C(=O)N[C@H](C(N)=O)C(C)C

Key:
[1] = target: human GLP-1 receptor (hGLP1R) (human, UniProt P43220 24-463); experiment: cell-based or functional assay
[2] = target: human secretin receptor (hSCTR) (human, UniProt P47872 23-440); experiment: cell-based or functional assay
Chain of human secretin receptor (hSCTR) (P47872 23-440): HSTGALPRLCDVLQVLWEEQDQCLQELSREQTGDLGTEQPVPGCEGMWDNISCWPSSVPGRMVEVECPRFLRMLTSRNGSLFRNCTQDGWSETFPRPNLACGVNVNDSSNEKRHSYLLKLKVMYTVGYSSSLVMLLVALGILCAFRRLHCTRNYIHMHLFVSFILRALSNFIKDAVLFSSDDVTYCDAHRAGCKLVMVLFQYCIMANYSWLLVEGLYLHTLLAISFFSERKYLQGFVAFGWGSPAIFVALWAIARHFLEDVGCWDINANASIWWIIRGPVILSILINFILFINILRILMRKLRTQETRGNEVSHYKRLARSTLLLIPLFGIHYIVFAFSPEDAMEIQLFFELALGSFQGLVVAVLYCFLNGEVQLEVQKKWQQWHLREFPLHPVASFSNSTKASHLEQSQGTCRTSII

Binder | pEC50 hGLPR1 [1] | pEC50 hSCTR [2]
B1 | 10.2 -log M | 7 -log M
B2 | 10.1 -log M | 7.2 -log M
B3 | 9.9 -log M | 7.3 -log M
B4 | 10.6 -log M | 7.9 -log M
B5 | 10.6 -log M | 8 -log M
H[Aib]EGTFTSDVSTLK([AEEA-AEEA-γGlu-C20 diacid])ETAASQRFLEHLV-NH2 [SEQ ID NO: 20] | 10.7 -log M | 6.4 -log M
H[Aib]EGTFTSDYSYLK([AEEA-AEEA-γGlu-C20 diacid])EEA[Aib]LQRFLEHLV-NH2 [SEQ ID NO: 196] | 10.9 -log M | 7.7 -log M
B6 | 10.8 -log M | 8.1 -log M
B7 | 10.6 -log M | 8.3 -log M
B8 | 10.6 -log M | 8.3 -log M
B9 | 10.7 -log M | 8.1 -log M
